The test system of the data set is Escherichia coli TOP10. Put plainly: shrunken log2 fold change of peptide-encoding DNA abundance (4.5 h post-induction vs induction); higher = less antimicrobial activity (less host growth inhibition). As to conditions: time post-induction: 4.5 h; library: site-saturation at positions 5, 18, 19, 20.
For the sequence RRIRTRPPRLPRPRPRPDRHPRP, the “shrunken log2 fold change” value is -0.143. In the case of RRIRSRPPRLPRPRPRPILPPRP, the “shrunken log2 fold change” value is 0.161.

RRIRYRPPRLPRPRPRPVRTPRP: the “shrunken log2 fold change” value is -0.137. Take RRIRMRPPRLPRPRPRPCPLPRP: the “shrunken log2 fold change” value is -0.0594. For RRIRIRPPRLPRPRPRPVTKPRP the value was -0.359; for RRIRCRPPRLPRPRPRPGIRPRP, -0.107; for RRIRQRPPRLPRPRPRPHIWPRP, -0.333. With RRIRCRPPRLPRPRPRPDKWPRP, the “shrunken log2 fold change” value was 0.184.

Take RRIRGRPPRLPRPRPRPAQCPRP: the “shrunken log2 fold change” value was found to be 0.471. For RRIRNRPPRLPRPRPRPDAIPRP, the “shrunken log2 fold change” value was found to be 0.0267.

As for RRIRARPPRLPRPRPRPVMNPRP, the “shrunken log2 fold change” value is -0.0562. The result for RRIRYRPPRLPRPRPRPEISPRP reads -0.00407; that for RRIRGRPPRLPRPRPRPSDQPRP, 0.796. For the sequence RRIRDRPPRLPRPRPRPYYSPRP, the “shrunken log2 fold change” value worked out at 0.0804. For RRIRPRPPRLPRPRPRPQQIPRP the value was -0.124; for RRIRRRPPRLPRPRPRPIRRPRP, -0.0312. For the sequence RRIRVRPPRLPRPRPRPFATPRP, the “shrunken log2 fold change” value was found to be 0.276.

Consider RRIRARPPRLPRPRPRPVSMPRP, for which the “shrunken log2 fold change” value is 0.229. Take RRIRQRPPRLPRPRPRPAFHPRP: the “shrunken log2 fold change” value is -0.0711. Take RRIRWRPPRLPRPRPRPYQSPRP: the “shrunken log2 fold change” value is -0.583. The result for RRIRFRPPRLPRPRPRPSEHPRP reads -0.323; that for RRIRTRPPRLPRPRPRPRHKPRP, 0.123. For RRIRQRPPRLPRPRPRPIMMPRP the value was -0.0173; for RRIRVRPPRLPRPRPRPQWHPRP, -0.311; for RRIRSRPPRLPRPRPRPNISPRP, 0.00233. RRIRVRPPRLPRPRPRPRNHPRP: the “shrunken log2 fold change” value was found to be 0.0133.

Consider RRIRSRPPRLPRPRPRPYLWPRP, for which the “shrunken log2 fold change” value is -0.0115. As to RRIRVRPPRLPRPRPRPRDQPRP, the “shrunken log2 fold change” value is -0.0604. In the case of RRIRGRPPRLPRPRPRPPSAPRP, the “shrunken log2 fold change” value was found to be 1.07. As to RRIRNRPPRLPRPRPRPNMYPRP, the “shrunken log2 fold change” value is -0.392. As to RRIRRRPPRLPRPRPRPQIDPRP, the “shrunken log2 fold change” value was found to be 0.332. As for RRIRARPPRLPRPRPRPSGAPRP, the “shrunken log2 fold change” value worked out at 0.38. Turning to RRIRTRPPRLPRPRPRPPTWPRP, the “shrunken log2 fold change” value was 0.0779.

RRIRERPPRLPRPRPRPGFVPRP: the “shrunken log2 fold change” value is 0.755. RRIRWRPPRLPRPRPRPPWWPRP: the “shrunken log2 fold change” value is 0.674. The result for RRIRIRPPRLPRPRPRPIQRPRP reads -0.265; that for RRIRKRPPRLPRPRPRPMTVPRP, 0.0686; that for RRIRNRPPRLPRPRPRPAVLPRP, 0.00424. As to RRIRPRPPRLPRPRPRPMWQPRP, the “shrunken log2 fold change” value was 0.0423. As to RRIRSRPPRLPRPRPRPCPVPRP, the “shrunken log2 fold change” value is -0.0785. For the sequence RRIRTRPPRLPRPRPRPMNVPRP, the “shrunken log2 fold change” value was 0.0707. On to RRIRYRPPRLPRPRPRPRSPPRP, for which the “shrunken log2 fold change” value amounted to 0.0591.

On to RRIRPRPPRLPRPRPRPMPYPRP, for which the “shrunken log2 fold change” value is -0.41. On to RRIRERPPRLPRPRPRPINLPRP, for which the “shrunken log2 fold change” value is -0.338. Consider RRIRIRPPRLPRPRPRPTPEPRP, for which the “shrunken log2 fold change” value turned out to be 0.232.

RRIRIRPPRLPRPRPRPGCLPRP: the “shrunken log2 fold change” value is 1.56. For RRIRMRPPRLPRPRPRPYFMPRP, the “shrunken log2 fold change” value was -0.898. For RRIRKRPPRLPRPRPRPAFGPRP the value was 0.564. For RRIRIRPPRLPRPRPRPHTRPRP, the “shrunken log2 fold change” value was -0.35. With RRIRIRPPRLPRPRPRPYCHPRP, the “shrunken log2 fold change” value is -0.743.

With RRIRERPPRLPRPRPRPKMVPRP, the “shrunken log2 fold change” value is -0.22. The result for RRIRIRPPRLPRPRPRPSDLPRP reads -0.0735; that for RRIRSRPPRLPRPRPRPRGLPRP, 0.461. RRIRERPPRLPRPRPRPYEHPRP: the “shrunken log2 fold change” value is -0.278. As to RRIRQRPPRLPRPRPRPPRGPRP, the “shrunken log2 fold change” value was 2.1. For the sequence RRIRPRPPRLPRPRPRPCACPRP, the “shrunken log2 fold change” value is -0.129. For RRIRKRPPRLPRPRPRPEQTPRP the value was 1.15; for RRIRVRPPRLPRPRPRPVPPPRP, 0.27.

Consider RRIRSRPPRLPRPRPRPHDSPRP, for which the “shrunken log2 fold change” value was determined as 0.0375. Consider RRIRWRPPRLPRPRPRPLHDPRP, for which the “shrunken log2 fold change” value stood at 0.387.

Turning to RRIRSRPPRLPRPRPRPYVNPRP, the “shrunken log2 fold change” value was -0.283. For the sequence RRIRQRPPRLPRPRPRPTKDPRP, the “shrunken log2 fold change” value is -0.198.

On to RRIRHRPPRLPRPRPRPMLRPRP, for which the “shrunken log2 fold change” value is -0.0571. As for RRIRMRPPRLPRPRPRPIEYPRP, the “shrunken log2 fold change” value is 0.048.

On to RRIRHRPPRLPRPRPRPRWEPRP, for which the “shrunken log2 fold change” value came out at 0.136. Turning to RRIRRRPPRLPRPRPRPYCWPRP, the “shrunken log2 fold change” value was -0.474. For RRIRDRPPRLPRPRPRPSWRPRP the value was 0.0848; for RRIRWRPPRLPRPRPRPFWVPRP, 0.00637. For RRIRVRPPRLPRPRPRPRWVPRP the value was 0.309; for RRIRVRPPRLPRPRPRPTNDPRP, 0.0333. Turning to RRIRHRPPRLPRPRPRPPPMPRP, the “shrunken log2 fold change” value came out at 0.557. As to RRIRKRPPRLPRPRPRPKLCPRP, the “shrunken log2 fold change” value worked out at 0.515. Consider RRIRGRPPRLPRPRPRPAPFPRP, for which the “shrunken log2 fold change” value turned out to be 0.722.

Consider RRIRFRPPRLPRPRPRPCCAPRP, for which the “shrunken log2 fold change” value is -0.0621. For RRIRIRPPRLPRPRPRPCNMPRP the value was -0.0732; for RRIRNRPPRLPRPRPRPNTAPRP, 0.0213.

RRIRPRPPRLPRPRPRPYWHPRP: the “shrunken log2 fold change” value was -0.405. Take RRIRARPPRLPRPRPRPSKGPRP: the “shrunken log2 fold change” value is -0.133. For RRIRKRPPRLPRPRPRPWAFPRP the value was -0.016; for RRIRLRPPRLPRPRPRPDSDPRP, -0.0524. With RRIRQRPPRLPRPRPRPMPIPRP, the “shrunken log2 fold change” value came to 0.0245. Regarding RRIRMRPPRLPRPRPRPEKGPRP, the “shrunken log2 fold change” value was -0.0013. RRIRARPPRLPRPRPRPPLFPRP: the “shrunken log2 fold change” value was determined as 0.789. For RRIRNRPPRLPRPRPRPVIEPRP the value was -0.0754; for RRIRLRPPRLPRPRPRPEKGPRP, 0.693. For RRIRNRPPRLPRPRPRPKCNPRP, the “shrunken log2 fold change” value was -0.819. For RRIRYRPPRLPRPRPRPWVFPRP, the “shrunken log2 fold change” value is -0.0309.

As for RRIRCRPPRLPRPRPRPYQPPRP, the “shrunken log2 fold change” value was -0.152. The result for RRIRWRPPRLPRPRPRPNTVPRP reads 0.178. In the case of RRIRGRPPRLPRPRPRPRVYPRP, the “shrunken log2 fold change” value was 0.35. RRIRARPPRLPRPRPRPWCYPRP: the “shrunken log2 fold change” value is -0.306.

(Values after the supplement of paper PMC9112550, “Optimization of the antimicrobial peptide Bac7 by deep mutational scanning” (BMC Biology, 2022).)
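Also: peptides expressed intracellularly from a pBAD plasmid library in pooled LB shake-flask culture, induced with 0.3% L-arabinose, DNA abundance read by NGS, three biological replicates, DESeq2 with apeglm shrinkage.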
